Data set [1] in a line: Conversion of syringic acid, sinapic acid and syringol by crude PPOs, absorbance at 400 nm. The class given is biochemical. As to conditions: 4 mM substrate, crude PPO 8.2 μg/mL, pH 6.0 or 7.0, 50 μM CuSO4, room temperature, 2, 22 and 118 h. Here is the method: Syringic acid, sinapic acid and syringol (4 mM) were incubated with crude PPO2, 4, 6 and 7 from Example 5 in 100 mM BisTris buffer pH 6.0 or 7.0 with 50 μM CuSO4. Crude PPOs were dosed on target protein with a final concentration of 8.2 μg/mL. Substrate blanks prepared without the addition of enzyme and enzyme blanks without the addition of substrate were included. Incubations were performed in microtiterplates with a total reaction volume of 150 μL at room temperature for approximately 120 h. After 2, 22 and 118 h absorbance at 400 nm was measured.

Data set [2] in a line: Catechol oxidase activity assay: initial rate of 3-methoxycatechol oxidation at 400 nm (pH, copper and temperature optima). The class given is biochemical. Here is the method: PPO activity was determined by measuring the initial rate of 3-methoxycatechol oxidation at 400 nm (extinction coefficient used: ε 1200 M^−1cm^−1). One unit of activity is defined as the amount of PPO activity that oxidizes 1 μmol of 3-methoxycatechol to quinone per minute. Substrate was used at a concentration of 4 mM.
The pH optima were determined by measuring the initial rate of 3-methoxycatechol oxidation with varying pHs, at room temperature and using a CuSO4 concentration of 10 μM. The pH was varied in the range of pH3-9 using Carmody buffers. Enzyme loading was applied resulting in A400 absorbance values in the range of 0.1-1. Protein concentration was determined using the BCA method.
Optimal copper concentrations for the PPOs were determined at the optimal pH by varying the concentration of CuSO4 in the range of 1-1000 μM. In these experiments the pH was controlled using 50 mM Bis-Tris buffer pH 7.0.
Temperature optima were determined by measuring A400 absorbance after 1 h incubation at temperatures in the range of 20 to 70° C. In these experiments the pH was controlled using 50 mM Bis-Tris buffer pH 7.0. Copper concentrations of (20 or 50 μM) were used to prevent chemical oxidation as background activity at higher copper concentrations.

Data set [3] addresses T1, RAC incubated with LPMO9B (Thermothelomyces thermophilus, UniProt G2QCJ3).
T1 construct: made in house; host or cells: Myceliophthora thermophila C1 strain W1L#100.1Δpyr5ΔAlp1
T1 sequence (G2QCJ3 19-323): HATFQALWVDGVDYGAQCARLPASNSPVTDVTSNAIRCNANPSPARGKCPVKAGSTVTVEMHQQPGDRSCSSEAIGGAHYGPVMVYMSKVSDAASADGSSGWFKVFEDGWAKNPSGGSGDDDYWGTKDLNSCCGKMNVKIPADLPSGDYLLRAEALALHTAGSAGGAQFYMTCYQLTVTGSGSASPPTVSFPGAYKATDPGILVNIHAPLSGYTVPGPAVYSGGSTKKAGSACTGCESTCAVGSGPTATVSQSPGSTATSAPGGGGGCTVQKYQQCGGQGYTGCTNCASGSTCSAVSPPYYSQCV
Nature of the data set: RAC hydrolysis assay with LPMO9B and PPO2, PPO7 or AbTyr in the presence of sinapic acid or syringic acid. It counts as biochemical, Myceliophthora thermophila. The settings on record: for Activity: total release of non-oxidized and C1-oxidized gluco-oligosaccharides from RAC: LPMO9B 5 μg/ml alone = 100%, or with added enzyme, pH 5.0, 50° C., 24 h. Here is the method:
Reducing agents sinapic acid and syringic acid were obtained from Sigma-Aldrich (St. Louis, Mo., USA). RAC was prepared from Avicel by swelling it in phosphoric acid, (Zhang Y H P, Cui J, Lynd L R, & Kuang L R (2006) A transition from cellulose swelling to cellulose dissolution by o-phosphoric acid: Evidence from enzymatic hydrolysis and supramolecular structure. Biomacromolecules 7(2):644-648.). RAC was dissolved in 50 mM phospate buffer (pH 5.0) to a final concentration of 1.5 mg/ml. Copper chloride was added to a final concentration of 2.5 μM and dimethoxy containg reducing agent sinapic acid or syringic acid to a final concentration of 2 mM. LPMO9B (5 μg/ml) with or without PPO2 (5 μg/ml), PPO7 (5 μg/ml) or AbTyr (7.5 U/ml) were added and incubated for 24 h at 50° C. in a head-over-tail rotator in portions of 1 mL total volume (Stuart® rotator, Bibby Scientific LTD, Stone, UK) at 20 rpm. Products were analysed by HPAEC and MALDI-TOF MS as described previously. (Frommhagen M, Sforza S, Westphal A H, Visser J, Hinz S W, Koetsier M J et al. Discovery of the combined oxidative cleavage of plant xylan and cellulose by a new fungal polysaccharide monooxygenase. Biotechnology for Biofuels. 2015; 8:101. doi:10.1186/s13068-015-0284-1). The Activity denoted as “Activity*” represents total release of non-oxidized and C1-oxidized gluco-oligosaccharides from RAC incubated with LPMO9B in the presence of sinapic or syringic acid as a reducing agent and with addition of either AbTyr, PPO7 or PPO2. […] Standard deviations were less than 2%.

Data set [4] addresses T1, RAC incubated with LPMO9B. Nature of the data set: RAC hydrolysis assay with LPMO9B and PPO7 or AbTyr in the presence of phenolic reducing agents. It counts as biochemical, Myceliophthora thermophila. As to conditions: for Activity: total release of non-oxidized and C1-oxidized gluco-oligosaccharides from RAC: LPMO9B alone = 100%, or with added enzyme, pH 5.0, 50° C., 24 h. Here is the method:
Phenolic reducing agents were obtained from Sigma-Aldrich (St. Louis, Mo., USA). RAC was prepared as described above and dissolved in 50 mM phospate buffer (pH 5.0) to a final concentration of 1.5 mg/ml. Copper chloride was added to a final concentration of 2.5 μM and a phenolic reducing agent to a final concentration of 2 mM. LPMO9B (5 μg/ml) with or without PPO7 (5 μg/ml) or AbTyr (7.5 U/ml) were added and incubated for 24 h at 50° C. in a head-over-tail rotator in portions of 1 mL total volume (Stuart® rotator, Bibby Scientific LTD, Stone, UK) at 20 rpm. Products were analysed by HPAEC and MALDI-TOF MS as described previously. (Frommhagen M, Sforza S, Westphal A H, Visser J, Hinz S W, Koetsier M J et al. Discovery of the combined oxidative cleavage of plant xylan and cellulose by a new fungal polysaccharide monooxygenase. Biotechnology for Biofuels. 2015; 8:101. doi:10.1186/s13068-015-0284-1). The Activity denoted as Activity * represents total release of non-oxidized and C1-oxidized gluco-oligosaccharides from RAC incubated with LPMO9B in the presence of a phenolic reducing agent and with addition of either AbTyr or PPO7. […] Standard deviations were less than 2%.

The values that follow come from US20190002846A1, “POLYPEPTIDES HAVING DEMETHYLATING ACTIVITY” (Genencor International B.V., priority 2015, published 2019).

B1: PPO6: Myceliophthora thermophila C1 polyphenoloxidase with demethylating activity, mature form SEQ ID NO: 41 (protein, listed as Myceliophthora thermophila)
chain: AVKTVVITATTTVCPLSTRVCHGSSMISQSTNAPCSESTGITGSQSTAVTIPQSTDIISSQFSQFTDTTSSLSTGVACSSSPCPSNSQSTGTTSFESTGTTISQPTAVTNSSSTCLTSSQSTDAPSSESTGITISQSTGVTSSQSMSTPTSKSTAVPSSQSARVSTTSSSAKPSSTTETRPEPTLPNRAYPADIVDKLRDSGVDKLKEYLKSNPSNTGCTLENASIRREWSDLSVAEREEYIAAVKCLQSASPKSSKQQVPGARSRFDDFVATHINQTDSIHYTANFLSWHRYYVWAYEKALREECGYTGFQPYWNWDRYAADPANSPLFSGNSSSLSGNSVNGGCVTTGPFADMKVNLGPGASLAYNPRCLKRNISKSYAAMTTADKTYALITGSADIARFQDTMQAVPGVHAGGHFTIGGDPGGDVYSSPGDPAFWLHHAMIDRVWWIWQTHGLPGRLSEVAGSVAGSSRPGSGKDLVNLGVNGPAVAIENLLNTVGGLDGKMCYIYL
Take B1: the “Conversion of substrates (absorbance at 400 nm)” value in data set [1] is “able to convert syringic acid, sinapic acid and syringol”. Also, the pHopt in data set [2] (3-methoxycatechol oxidation, room temperature, 10 μM CuSO4, Carmody buffers pH3-9) was 7.0. Moreover, in data set [2] (>50% of maximum activity), the T range is 20-50 °C and the pH range is 6.0-8.5. Further, in data set [2] (>90% of maximum activity), the “[CuSO4] range” value lay in the range of 50 to 1000 µM. In data set [2] (A400 after 1 h incubation, 20 to 70° C., 50 mM Bis-Tris pH 7.0, 20 or 50 μM copper), this molecule returned a Topt of 30 °C. In addition, the “[CuSO4]opt” value in data set [2] (at optimal pH, 50 mM Bis-Tris buffer pH 7.0, CuSO4 varied 1-1000 μM) is 200 µM.

B2: LPMO9B: Myceliophthora thermophila lytic polysaccharide monooxygenase, mature amino acid sequence SEQ ID NO: 93 (protein, listed as Myceliophthora thermophila)
chain: HATFQALWVDGVDYGAQCARLPASNSPVTDVTSNAIRCNANPSPARGKCPVKAGSTVTVEMHQQPGDRSCSSEAIGGAHYGPVMVYMSKVSDAASADGSSGWFKVFEDGWAKNPSGGSGDDDYWGTKDLNSCCGKMNVKIPADLPSGDYLLRAEALALHTAGSAGGAQFYMTCYQLTVTGSGSASPPTVSFPGAYKATDPGILVNIHAPLSGYTVPGPAVYSGGSTKKAGSACTGCESTCAVGSGPTATVSQSPGSTATSAPGGGGGCTVQKYQQCGGQGYTGCTNCASGSTCSAVSPPYYSQCV
For B2, the “Activity in the absence of a reducing agent” value in data set [3] (no reducing agent) and in data set [4] (no reducing agent) was “no activity was detected” each time. Moreover, the “Activity: total release of non-oxidized and C1-oxidized gluco-oligosaccharides from RAC” value in data set [3] (reducing agent sinapic acid 2 mM), in data set [3] (reducing agent syringic acid 2 mM), in data set [4] (reducing agent 3,4-dihydroxy-5-methoxybenzoic acid 2 mM), in data set [4] (reducing agent 3,4-dihydroxy-5-methoxycinnamic acid 2 mM), in data set [4] (reducing agent 3,4-dihydroxybenzoic acid 2 mM) and in data set [4] (reducing agent 3-hydroxy-4-methoxycinnamic acid 2 mM) was 100% throughout. The “Activity: total release of non-oxidized and C1-oxidized gluco-oligosaccharides from RAC” value in data set [4] (reducing agent 3-methylcatechol 2 mM), in data set [4] (reducing agent 4-allyl-2,4-methoxyphenol 2 mM), in data set [4] (reducing agent 4-hydroxy-3-methoxyphenylactone 2 mM), in data set [4] (reducing agent caffeic acid 2 mM), in data set [4] (reducing agent coniferyl aldehyde 2 mM) and in data set [4] (reducing agent ferulic acid 2 mM) was 100% throughout. Also, the “Activity: total release of non-oxidized and C1-oxidized gluco-oligosaccharides from RAC” value in data set [4] (reducing agent gallic acid 2 mM), in data set [4] (reducing agent guaiacol 2 mM), in data set [4] (reducing agent hesperidin 2 mM), in data set [4] (reducing agent homovanillic acid 2 mM) and in data set [4] (reducing agent vanillic acid 2 mM) was 100% in each case.
